Results from patent publication US20250257126A1 (CAMBRIDGE ENTERPRISE, published 2025).

Biological target: T1, RAD-displayed Fragment 1A of human LGR5 (human)
T1 construct: also called Frag1A
T1 sequence (O75473 22-37, looked up): GSSPRSGVLLRGCPTH
Experiment: bio-layer interferometry (Octet), captured RAD-displayed fragment

B1: α-LGR5 variant 4 (antibody, human IgG1, kappa, V domains shown)
VH: QVQLVQSGAEVKKPGASVKVSCKASGYTFTNYWMQWVRQAPGQGLEWIGEIDPSDSYTNYNQKFQGRVTLTVDTSTSTAYMELSSLRSEDTAVYYCARSLSGYVDYWGQGTTVTVSS
VL: EIVMTQSPATLSLSPGERATLSCRASQDISNRLNWYQQKPGQAVRLLISYRSRRHTGIPARFSGSGSGTDYTLTISSLEPEDFAVYYCQQGNSLPPTFGGGTKLEIKR
notes: Humanized antibody; also called α-LGR5v4; clone 2.4
  Kd: 2 nM
